Experimental data from patent publication US20230265151A1, “GIP/GLP1 CO-AGONIST COMPOUNDS” (priority 2020, published 2023).
Where a chain is given by its changes, count along the chain named.

T1: human GIP receptor (human) (UniProt P48546)
T1 sequence (looked up): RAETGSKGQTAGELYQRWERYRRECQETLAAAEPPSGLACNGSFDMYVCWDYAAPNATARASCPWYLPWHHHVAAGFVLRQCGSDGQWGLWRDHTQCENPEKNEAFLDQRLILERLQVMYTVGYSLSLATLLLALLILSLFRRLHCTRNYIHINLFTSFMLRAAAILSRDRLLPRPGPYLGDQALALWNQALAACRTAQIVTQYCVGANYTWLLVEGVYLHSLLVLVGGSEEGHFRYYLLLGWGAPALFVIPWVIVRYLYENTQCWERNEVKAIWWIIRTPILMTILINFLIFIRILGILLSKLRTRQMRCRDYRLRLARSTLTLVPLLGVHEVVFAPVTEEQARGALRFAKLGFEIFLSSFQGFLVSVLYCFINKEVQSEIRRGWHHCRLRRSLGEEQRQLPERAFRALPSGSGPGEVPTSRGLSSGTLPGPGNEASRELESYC

T2: human GIP receptor (human, UniProt P48546 22-466)
T2 sequence (looked up): T1 sequence (looked up)

B1: Example 424 (peptide)
peptide: YXEGTXTSDXXIXLDXKAQXEFIXXLIEGGPSSGAPPPSK
modifications: Y-Aib-EGT-αMeF(2F)-TSD-4Pal-Aib-I-αMeL-LD-Orn-K((2-[2-(2-Amino-ethoxy)-ethoxy]-acetyl)3-(γ-Glu)-CO-(CH2)10-CH3)AQ-Aib-EFI-(D-Glu)-αMeY-LIEGGPSSGAPPPSK((2-[2-(2-Amino-ethoxy)-ethoxy]-acetyl)3-(γ-Glu)-CO-(CH2)10-CH3)-NH2
B2: Example 426 (peptide)
peptide: YXEGTXTSDXXIXLDXKAQXKFIXXLIEGGPSSGAPPPS
modifications: Y-Aib-EGT-αMeF(2F)-TSD-4Pal-Aib-I-αMeL-LD-Orn-K((2-[2-(2-Amino-ethoxy)-ethoxy]-acetyl)-(γ-Glu)-CO-(CH2)10-CH3)AQ-Aib-K((2-[2-(2-Amino-ethoxy)-ethoxy]-acetyl)-(γ-Glu)-CO-(CH2)10-CH3)FI-(D-Glu)-αMeY-LIEGGPSSGAPPPS-NH2
B3: Example 428 (peptide)
peptide: B1 peptide
modifications: Y-Aib-EGT-αMeF(2F)-TSD-4Pal-Aib-I-αMeL-LD-Orn-K((2-[2-(2-Amino-ethoxy)-ethoxy]-acetyl)-(γ-Glu)-CO-(CH2)10-CH3)AQ-Aib-EFI-(D-Glu)-αMeY-LIEGGPSSGAPPPSK((2-[2-(2-Amino-ethoxy)-ethoxy]-acetyl)-(γ-Glu)-CO-(CH2)10-CH3)-NH2
B4: Example 429 (peptide)
peptide: B2 peptide with X10K, K21E, F22X
modifications: Y-Aib-EGT-αMeF(2F)-TSDK((2-[2-(2-Amino-ethoxy)-ethoxy]-acetyl)2-(γ-Glu)-CO-(CH2)10-CH3)-Aib-I-αMeL-LD-Orn-K((2-[2-(2-Amino-ethoxy)-ethoxy]-acetyl)2-(γ-Glu)-CO-(CH2)10-CH3)AQ-Aib-E-αMeF-I-(D-Glu)-αMeY-LIEGGPSSGAPPPS-NH2
B5: Example 430 (peptide)
peptide: B2 peptide with F22X
modifications: not fully specified; Y-Aib-EGT-αMeF(2F)-TSD-4Pal-Aib-I-αMeL-LD-Orn-K((2-[2-(2-Amino-ethoxy)-ethoxy]-acetyl)2-(γ Glu)-CO-(CH2)10H3)AQ-Aib-K((2-[2-(2-Amino-ethoxy)-ethoxy]-acetyl)2-(γGlu)-CO-(CH2)10C3)-αMeFI-(D-Glu)-αMeY-LIEGGPSSGAPPPS-NH2
B6: Example 431 (peptide)
peptide: B1 peptide with F22X
modifications: not fully specified; Y-Aib-EGT-αMeF(2F)-TSD-4Pal-Aib-I-αMeL-LD-Orn-K((2-[2-(2-Amino-ethoxy)-ethoxy]-acetyl)2-(γ Glu)-CO-(CH2)10C3)AQ-Aib-E-αMeF-I-(D-Glu)-αMeY-LIEGGPSSGAPPPSK((2-[2-(2-Amino-ethoxy)-ethoxy]-acetyl)2-(γ-Glu)-CO-(CH2)10-CH3)-NH2
B7: Example 432 (peptide)
peptide: B2 peptide with X10K, K21X
modifications: Y-Aib-EGT-αMeF(2F)-TSDK((2-[2-(2-Amino-ethoxy)-ethoxy]-acetyl)3-(γ-Glu)-CO-(CH2)10-CH3)-Aib-I-αMeL-LD-Orn-K((2-[2-(2-Amino-ethoxy)-ethoxy]-acetyl)3-(γ-Glu)-CO-(CH2)10-CH3)AQ-Aib-Orn-FI-(D-Glu)-αMeY-LIEGGPSSGAPPPS-NH2
B8: Example 434 (peptide)
peptide: B2 peptide with K21X, E28K
modifications: Y-Aib-EGT-αMeF(2F)-TSD-4Pal-Aib-I-αMeL-LD-Orn-K((2-[2-(2-Amino-ethoxy)-ethoxy]-acetyl)3-(γ-Glu)-CO-(CH2)10-CH3)AQ-Aib-Orn-FI-(D-Glu)-αMeY-LIK((2-[2-(2-Amino-ethoxy)-ethoxy]-acetyl)3-(γ-Glu)-CO-(CH2)10-CH3)GGPSSGAPPPS-NH2
B9: Example 435 (peptide)
peptide: B1 peptide with E21X
modifications: Y-Aib-EGT-αMeF(2F)-TSD-4Pal-Aib-I-αMeL-LD-Orn-K((2-[2-(2-Amino-ethoxy)-ethoxy]-acetyl)3-(γ Glu)-CO-(CH2)10CH3)AQ-Aib-Orn-FI-(D-Glu)-αMeY-LIEGGPSSGAPPPSK((2-[2-(2-Amino-ethoxy)-ethoxy]-acetyl)3-(γ-Glu)-CO-(CH2)10-CH3)-NH2
B10: Example 436 (peptide)
peptide: B2 peptide with X10K, K21E, F22X
modifications: Y-Aib-EGT-αMeF(2F)-TSDK((2-[2-(2-Amino-ethoxy)-ethoxy]-acetyl)3-(γ-Glu)-CO-(CH2)10-CH3)-Aib-I-αMeL-LD-Orn-K((2-[2-(2-Amino-ethoxy)-ethoxy]-acetyl)3-(γ-Glu)-CO-(CH2)10-CH3)AQ-Aib-E-αMeF-I-(D-Glu)-αMeY-LIEGGPSSGAPPPS-NH2

Legend:
Assay in all cases: cell-based or functional assay
[1] = target: T1, human GIP receptor (human)
[2] = target: hGLP-1R (Homo sapiens, UniProt P43220)
[3] = target: human glucagon receptor (human) (UniProt P47871)
[4] = target: human GLP-1 receptor (human, UniProt P43220 24-463)
[5] = target: T2, human GIP receptor
[6] = target: human glucagon receptor (human, UniProt P47871 26-477)
Chain of human glucagon receptor (P47871 26-477): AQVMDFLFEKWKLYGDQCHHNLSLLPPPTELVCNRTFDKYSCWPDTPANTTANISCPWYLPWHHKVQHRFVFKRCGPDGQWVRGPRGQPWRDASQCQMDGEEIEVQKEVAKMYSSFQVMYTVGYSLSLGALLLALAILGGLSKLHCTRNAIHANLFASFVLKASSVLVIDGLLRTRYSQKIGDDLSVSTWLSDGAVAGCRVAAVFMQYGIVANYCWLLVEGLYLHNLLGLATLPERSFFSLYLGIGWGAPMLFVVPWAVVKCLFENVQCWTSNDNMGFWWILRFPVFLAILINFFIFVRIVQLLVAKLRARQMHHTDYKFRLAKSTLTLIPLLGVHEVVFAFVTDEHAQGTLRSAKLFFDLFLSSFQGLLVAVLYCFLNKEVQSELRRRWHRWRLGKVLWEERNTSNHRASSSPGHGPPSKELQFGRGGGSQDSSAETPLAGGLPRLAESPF

Binder | cAMP EC50 [1] | cAMP Emax [1] | cAMP EC50 [2] | cAMP Emax [2] | cAMP EC50 [3] | cAMP EC50 (1.0% HSA) [4] | cAMP EC50 (1.0% HSA) [5] | cAMP EC50 (1.0% HSA) [6] | cAMP Emax (1.0% HSA) [5] | cAMP Emax (1.0% HSA) [4]
B1 | 0.00502 nM | 101% | 0.0427 nM | 102% | > 9950 nM | 3.07 nM | 0.159 nM | > 9950 nM | – | –
B2 | 0.0191 nM | 93.3% | 0.206 nM | 97.2% | > 9950 nM | 29.7 nM | 3.88 nM | > 9950 nM | 91.2% | –
B3 | 0.00797 nM | 95.5% | 0.102 nM | 106% | > 9950 nM | 10.2 nM | 0.748 nM | > 9950 nM | – | –
B4 | 0.00799 nM | 108% | 0.116 nM | 116% | > 9950 nM | 17.3 nM | 1.03 nM | > 9950 nM | 93.3% | –
B5 | 0.0175 nM | 107% | 0.342 nM | 93.1% | > 9950 nM | 26.8 nM | 1.09 nM | > 9950 nM | 91.5% | 88.5%
B6 | 0.0097 nM | 104% | 0.134 nM | 99.2% | > 9950 nM | 17.5 nM | 0.645 nM | > 9950 nM | 98% | 91.6%
B7 | 0.00602 nM | – | 0.0549 nM | 106% | > 9950 nM | 1.28 nM | 0.0875 nM | > 9950 nM | – | –
B8 | 0.00704 nM | 98.3% | 0.0837 nM | 104% | > 9950 nM | 1.73 nM | 0.0994 nM | > 9950 nM | 97.5% | –
B9 | 0.00517 nM | 104% | 0.0527 nM | 111% | > 9950 nM | 1.63 nM | 0.0873 nM | > 9950 nM | 98.7% | 97.8%
B10 | 0.00714 nM | 102% | 0.102 nM | 98.9% | > 9950 nM | 4.98 nM | 0.241 nM | > 9950 nM | 96% | –
